Test results taken from patent publication US20080267950A1 (BOARD OF TRUSTEES OF THE UNIVERSITY OF ARKANSAS, published 2008).

Legend:
[1] = molecular target: T1, LRP6 in C2C12 cell lysate (mouse, UniProt O88572 20-1613); assay: co-immunoprecipitation: BMPR immunoprecipitated from C2C12 lysate, blotted with anti-LRP6
T1 construct: also called LDL receptor-related protein 6

[2] = molecular target: T2, LRP5 in C2C12 cell lysate (mouse, UniProt Q91VN0 31-1614); assay: co-immunoprecipitation: BMPR immunoprecipitated from C2C12 lysate, blotted with anti-LRP5
T2 construct: also called LDL receptor-related protein 5
T2 sequence (Q91VN0 31-1614 limits assumed): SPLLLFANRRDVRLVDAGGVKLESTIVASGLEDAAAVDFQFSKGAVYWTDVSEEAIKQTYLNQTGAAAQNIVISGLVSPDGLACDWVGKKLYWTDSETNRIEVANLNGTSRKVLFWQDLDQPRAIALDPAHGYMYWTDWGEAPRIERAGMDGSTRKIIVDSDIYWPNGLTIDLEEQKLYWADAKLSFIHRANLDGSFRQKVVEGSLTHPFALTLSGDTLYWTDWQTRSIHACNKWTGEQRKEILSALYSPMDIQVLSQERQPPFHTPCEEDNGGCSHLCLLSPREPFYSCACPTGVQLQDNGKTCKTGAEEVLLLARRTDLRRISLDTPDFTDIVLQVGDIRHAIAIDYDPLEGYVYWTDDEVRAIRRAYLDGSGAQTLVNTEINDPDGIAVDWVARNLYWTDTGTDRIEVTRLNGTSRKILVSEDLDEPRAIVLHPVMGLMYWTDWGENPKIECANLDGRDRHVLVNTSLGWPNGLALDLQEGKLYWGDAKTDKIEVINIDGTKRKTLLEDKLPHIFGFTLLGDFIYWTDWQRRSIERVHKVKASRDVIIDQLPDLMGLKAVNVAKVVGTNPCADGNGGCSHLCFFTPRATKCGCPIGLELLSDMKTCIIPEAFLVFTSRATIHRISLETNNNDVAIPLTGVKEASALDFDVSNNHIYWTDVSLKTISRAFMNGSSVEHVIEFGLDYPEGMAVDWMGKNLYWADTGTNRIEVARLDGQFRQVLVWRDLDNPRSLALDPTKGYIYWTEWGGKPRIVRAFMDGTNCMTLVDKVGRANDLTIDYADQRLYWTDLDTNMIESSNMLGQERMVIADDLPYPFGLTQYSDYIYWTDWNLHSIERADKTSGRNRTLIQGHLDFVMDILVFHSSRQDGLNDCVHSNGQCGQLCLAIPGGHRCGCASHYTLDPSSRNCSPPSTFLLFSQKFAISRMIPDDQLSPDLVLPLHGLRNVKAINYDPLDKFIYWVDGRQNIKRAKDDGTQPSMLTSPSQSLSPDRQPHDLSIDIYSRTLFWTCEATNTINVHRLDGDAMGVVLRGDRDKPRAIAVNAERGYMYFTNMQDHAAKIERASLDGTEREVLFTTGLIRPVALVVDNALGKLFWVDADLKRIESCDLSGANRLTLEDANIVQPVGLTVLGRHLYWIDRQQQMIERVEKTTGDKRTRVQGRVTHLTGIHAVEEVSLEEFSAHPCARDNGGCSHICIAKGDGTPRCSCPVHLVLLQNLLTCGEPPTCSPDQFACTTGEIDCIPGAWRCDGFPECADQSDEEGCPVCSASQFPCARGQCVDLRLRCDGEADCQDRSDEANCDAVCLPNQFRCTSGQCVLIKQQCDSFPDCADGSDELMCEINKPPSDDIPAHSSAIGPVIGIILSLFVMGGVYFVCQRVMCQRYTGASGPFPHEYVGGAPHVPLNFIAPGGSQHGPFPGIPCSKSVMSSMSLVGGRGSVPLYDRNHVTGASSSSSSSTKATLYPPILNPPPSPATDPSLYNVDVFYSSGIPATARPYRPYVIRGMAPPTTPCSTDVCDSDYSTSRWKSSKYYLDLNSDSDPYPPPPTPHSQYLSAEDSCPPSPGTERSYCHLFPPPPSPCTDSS

T1 sequence (O88572 20-1613 limits assumed): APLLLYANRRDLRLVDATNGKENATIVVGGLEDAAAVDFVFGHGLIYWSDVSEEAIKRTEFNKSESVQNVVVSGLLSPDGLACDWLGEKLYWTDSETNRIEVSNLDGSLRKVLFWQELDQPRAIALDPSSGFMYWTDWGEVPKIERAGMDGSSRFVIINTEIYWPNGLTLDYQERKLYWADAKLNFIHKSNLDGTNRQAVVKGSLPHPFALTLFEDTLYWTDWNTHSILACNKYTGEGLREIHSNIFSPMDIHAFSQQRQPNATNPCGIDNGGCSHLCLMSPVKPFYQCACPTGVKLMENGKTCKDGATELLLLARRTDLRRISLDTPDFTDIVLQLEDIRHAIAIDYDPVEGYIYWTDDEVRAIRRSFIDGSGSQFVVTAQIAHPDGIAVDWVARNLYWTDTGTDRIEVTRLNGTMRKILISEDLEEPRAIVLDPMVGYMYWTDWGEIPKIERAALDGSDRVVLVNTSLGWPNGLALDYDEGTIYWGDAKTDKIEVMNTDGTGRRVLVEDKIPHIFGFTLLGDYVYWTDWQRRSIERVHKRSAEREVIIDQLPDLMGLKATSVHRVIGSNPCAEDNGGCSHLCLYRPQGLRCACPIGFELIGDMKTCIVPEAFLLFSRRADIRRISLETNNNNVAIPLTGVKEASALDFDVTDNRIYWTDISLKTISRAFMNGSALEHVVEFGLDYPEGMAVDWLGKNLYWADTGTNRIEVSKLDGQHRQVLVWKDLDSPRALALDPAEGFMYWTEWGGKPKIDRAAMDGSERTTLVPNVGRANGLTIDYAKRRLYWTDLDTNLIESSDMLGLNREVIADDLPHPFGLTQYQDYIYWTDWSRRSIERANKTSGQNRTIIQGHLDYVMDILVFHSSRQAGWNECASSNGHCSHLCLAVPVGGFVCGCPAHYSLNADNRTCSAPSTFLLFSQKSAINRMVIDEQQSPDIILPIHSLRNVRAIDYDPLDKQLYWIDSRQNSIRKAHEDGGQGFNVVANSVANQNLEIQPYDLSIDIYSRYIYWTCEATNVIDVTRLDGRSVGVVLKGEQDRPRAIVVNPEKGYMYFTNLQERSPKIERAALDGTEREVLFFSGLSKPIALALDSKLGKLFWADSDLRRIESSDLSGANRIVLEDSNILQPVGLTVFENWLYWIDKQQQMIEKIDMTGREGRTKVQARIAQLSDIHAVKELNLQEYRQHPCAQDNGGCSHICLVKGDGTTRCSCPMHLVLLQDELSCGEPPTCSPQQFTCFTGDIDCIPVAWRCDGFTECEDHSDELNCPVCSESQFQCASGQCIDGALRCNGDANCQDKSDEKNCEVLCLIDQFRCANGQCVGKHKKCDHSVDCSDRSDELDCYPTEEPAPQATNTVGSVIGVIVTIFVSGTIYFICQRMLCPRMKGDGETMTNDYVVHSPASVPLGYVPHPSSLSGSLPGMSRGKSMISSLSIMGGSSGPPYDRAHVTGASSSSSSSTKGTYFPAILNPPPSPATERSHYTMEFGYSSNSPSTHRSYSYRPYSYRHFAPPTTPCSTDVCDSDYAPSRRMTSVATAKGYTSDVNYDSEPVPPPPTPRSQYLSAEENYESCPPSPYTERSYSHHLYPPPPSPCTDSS

B1: BMPR-II in C2C12 cell lysate (receptor, mouse, UniProt O35607 27-1038, looked up)
chain: SQNQERLCAFKDPYQQDLGIGESRISHENGTILCSKGSTCYGLWEKSKGDINLVKQGCWSHIGDPQECHYEECVVTTTPPSIQNGTYRFCCCSTDLCNVNFTENFPPPDTTPLSPPHSFNRDETIIIALASVSVLAVLIVALCFGYRMLTGDRKQGLHSMNMMEAAAAEPSLDLDNLKLLELIGRGRYGAVYKGSLDERPVAVKVFSFANRQNFINEKNIYRVPLMEHDNIARFIVGDERLTADGRMEYLLVMEYYPNGSLCKYLSLHTSDWVSSCRLAHSVTRGLAYLHTELPRGDHYKPAISHRDLNSRNVLVKNDGACVISDFGLSMRLTGNRLVRPGEEDNAAISEVGTIRYMAPEVLEGAVNLRDCESALKQVDMYALGLIYWEVFMRCTDLFPGESVPDYQMAFQTEVGNHPTFEDMQVLVSREKQRPKFPEAWKENSLAVRSLKETIEDCWDQDAEARLTAQCAEERMAELMMIWERNKSVSPTVNPMSTAMQNERNLSHNRRVPKIGPYPDYSSSSYIEDSIHHTDSIVKNISSEHSMSSTPLTIGEKNRNSINYERQQAQARIPSPETSVTSLSTNTTTTNTTGLTPSTGMTTISEMPYPDETHLHATNVAQSIGPTPVCLQLTEEDLETNKLDPKEVDKNLKESSDENLMEHSLKQFSGPDPLSSTSSSLLYPLIKLAVEVTGQQDFTQAANGQACLIPDVPPAQIYPLPKQQNLPKRPTSLPLNTKNSTKEPRLKFGNKHKSNLKQVETGVAKMNTINAAEPHVVTVTMNGVAGRSHNVNSHAATTQYANGAVPAGQAANIVAHRSQEMLQNQFIGEDTRLNINSSPDEHEPLLRREQQAGHDEGVLDRLVDRRERPLEGGRTNSNNNNSNPCSEQDILTQGVTSTAADPGPSKPRRAQRPNSLDLSATNILDGSSIQIGESTQDGKSGSGEKIKRRVKTPYSLKRWRPSTWVISTEPLDCEVNNNGSDRAVHSKSSTAVYLAEGGTATTTVSKDIGMNCL
notes: also called BMP-2 receptor
**Q.** Does B1 bind [1]?
**A.** no binding

**Q.** Does B1 bind [2]?
**A.** no binding
